Results published in IntAct's records for PubMed 21577206.

B1: Transgelin-2 (Homo sapiens), P37802 (parent)
chain: MANRGPAYGLSREVQQKIEKQYDADLEQILIQWITTQCRKDVGRPQPGRENFQNWLKDGTVLCELINALYPEGQAPVKKIQASTMAFKQMEQISQFLQAAERYGINTTDIFQTVDLWEGKNMACVQRTLMNLGGLAVARDDGLFSGDPNWFPKKSKENPRNFSDNQLQEGKNVIGLQMGTNRGASQAGMTGYGMPRQIL

Variants of: B1
Details: with actb_human ACTB

effect of a mutation on the interaction	Variant
decreasing interaction	S83D
increasing interaction	S83A
decreasing interaction	S163D
increasing interaction	S163A
